In PMC4813677:

Target: pyruvate kinase M2 (PKM2) (human (endogenous in monocytes and macrophages)) (UniProt P14618)
Assay: cross-linking

Chain of pyruvate kinase M2 (PKM2), P14618 1-531 (enzyme; other documents disagree on this pair) (P14618 whole entry): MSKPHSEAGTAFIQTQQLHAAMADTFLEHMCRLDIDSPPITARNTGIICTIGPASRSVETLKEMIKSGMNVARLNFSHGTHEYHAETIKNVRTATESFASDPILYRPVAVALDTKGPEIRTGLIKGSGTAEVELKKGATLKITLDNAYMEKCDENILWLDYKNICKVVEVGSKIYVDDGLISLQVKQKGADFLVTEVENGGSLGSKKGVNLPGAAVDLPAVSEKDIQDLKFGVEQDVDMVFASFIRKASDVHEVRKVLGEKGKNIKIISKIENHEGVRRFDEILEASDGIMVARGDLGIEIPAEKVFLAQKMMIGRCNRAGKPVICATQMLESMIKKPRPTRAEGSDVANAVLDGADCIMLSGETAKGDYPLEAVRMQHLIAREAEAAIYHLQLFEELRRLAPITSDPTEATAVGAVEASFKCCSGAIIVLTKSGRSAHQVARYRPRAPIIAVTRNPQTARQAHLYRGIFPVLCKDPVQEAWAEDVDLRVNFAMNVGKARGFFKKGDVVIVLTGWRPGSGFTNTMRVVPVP

stoichiometry N: 2
Substance: pyruvate kinase M2 (PKM2), P14618 1-531 (enzyme; other documents disagree on this pair)
